Here are results for seven molecules from patent US20250368744A1 (CONCEPT TO MEDICINE BIOTECH, published 2025).

Read-outs that look alike come from different tables or passages of the source.

The target of experiment [1] is T1, human C-C motif chemokine receptor 8 (CCR8) (human, UniProt P51685 1-355).
T1 construct: whole, on cells; also called human CCR8; hCCR8
Put plainly: FACS (MFI PE) on HEK293 hCCR8 cells.

Experiment [2] deals with T1, human C-C motif chemokine receptor 8 …. Put plainly: cell-based or functional assay.
For experiment [3] the target is unchanged. Put plainly: cell-based or functional assay. The source holds these as a separate data set.
For experiment [4] the target is unchanged. Put plainly: cell-based or functional assay. This is another data set of the same source.
Experiment [5] shares this target. Put plainly: cell-based or functional assay. This is another data set of the same source.
Experiment [6] has the same target. Put plainly: FACS (MFI-PE) on HEK293 hCCR8 cells.
Experiment [7] deals with T2, human CCR4 (human, UniProt P51679 1-360).
T2 construct: whole, on cells; also called hCCR4
T2 sequence (looked up): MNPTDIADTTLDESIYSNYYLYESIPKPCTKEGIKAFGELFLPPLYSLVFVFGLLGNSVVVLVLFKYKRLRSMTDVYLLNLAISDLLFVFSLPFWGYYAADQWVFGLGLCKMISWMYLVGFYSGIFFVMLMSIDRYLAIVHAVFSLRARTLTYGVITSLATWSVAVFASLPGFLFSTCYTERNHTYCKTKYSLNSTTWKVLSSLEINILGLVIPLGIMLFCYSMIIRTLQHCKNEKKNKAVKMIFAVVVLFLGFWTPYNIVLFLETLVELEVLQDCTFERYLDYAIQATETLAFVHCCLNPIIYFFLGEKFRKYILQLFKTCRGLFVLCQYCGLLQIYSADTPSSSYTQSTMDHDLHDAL
Put plainly: FACS, CHO-K1 hCCR4 cells. Here is the method: (§1) Briefly, HEK293 hCCR8 cell line, CHO-K1 cyno CCR8 cell line or CHO-K1 hCCR4 cell line was first incubated with 5-fold serially diluted and 8 doses with the above 10 chimeric Abs and hlgG1 control starting from 100 nM at 4° C. for 30 mins. After washing by FACS buffer, PE Goat anti-Human IgG Fc Secondary Antibody (eBioscience™, Invitrogen) was added to each well and incubated at 4° C. for 30 mins. Samples were washed twice with FACS buffer. The mean florescence intensity (MFI) of PE was evaluated by MACSQuant Analyzer 16.
A general note: In flow cytometry, cells or beads pass a laser one at a time.

Experiment [8] addresses T1, human C-C motif chemokine receptor 8 …. Put plainly: cell-based or functional assay. This is another data set of the same source.
In experiment [9] the target is T3, cyno CCR8 (cynomolgus, UniProt G7NYJ2 1-355).
T3 construct: whole, on cells; also called cynomolgus CCR8 protein
T3 sequence (G7NYJ2 entry or part of it): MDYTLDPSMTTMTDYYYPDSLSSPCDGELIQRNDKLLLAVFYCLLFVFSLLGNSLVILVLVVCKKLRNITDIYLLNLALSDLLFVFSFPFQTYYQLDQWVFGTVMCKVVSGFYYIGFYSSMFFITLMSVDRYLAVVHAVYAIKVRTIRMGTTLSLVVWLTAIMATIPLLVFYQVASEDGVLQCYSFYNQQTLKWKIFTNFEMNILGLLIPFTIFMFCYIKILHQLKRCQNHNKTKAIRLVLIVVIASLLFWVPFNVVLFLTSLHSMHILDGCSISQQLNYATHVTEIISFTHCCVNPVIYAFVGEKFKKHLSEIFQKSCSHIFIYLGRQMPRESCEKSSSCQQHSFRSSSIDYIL
Put plainly: FACS (MFI-PE) on CHO-K1 cyno CCR8 cells; fitted value, the curve stays at the baseline. On the procedure:
as §1

Experiment [10] has as its target T1, human C-C motif chemokine receptor 8 …. Put plainly: FACS (MFI-PE) on HEK293 hCCR8 cells. On the procedure: as §1
This is another data set of the same source.

Experiment [11] has the same target. Put plainly: cell-based or functional assay. The source holds these as a separate data set.
Experiment [12] has the same target. Put plainly: FACS (MFI-PE) on CHO-K1 hCCR8 cells.
The target of experiment [13] is T3, cyno CCR8. Put plainly: FACS (MFI-PE) on CHO-K1 cyno CCR8 cells.
Experiment [14] deals with T1, human C-C motif chemokine receptor 8 …. Put plainly: cell-based or functional assay. The source holds these as a separate data set.
Experiment [15] has the same target. Put plainly: cell-based or functional assay. The source holds these as a separate data set.
The target of experiment [16] is T3, cyno CCR8. Put plainly: FACS (MFI-PE) on CHO-K1 cyno CCR8 cells. Here is the method:
as §1
This is another data set of the same source.

Experiment [17] concerns the target T3, cyno CCR8. Put plainly: FACS (MFI-PE) on CHO-K1 cyno CCR8 cells; fitted value far outside the range tested (up to 100 nM).
In experiment [18] the target is T3, cyno CCR8. Put plainly: FACS (MFI-PE) on CHO-K1 cyno CCR8 cells; fitted value, the curve hardly leaves the baseline.

T1 sequence (P51685 whole entry): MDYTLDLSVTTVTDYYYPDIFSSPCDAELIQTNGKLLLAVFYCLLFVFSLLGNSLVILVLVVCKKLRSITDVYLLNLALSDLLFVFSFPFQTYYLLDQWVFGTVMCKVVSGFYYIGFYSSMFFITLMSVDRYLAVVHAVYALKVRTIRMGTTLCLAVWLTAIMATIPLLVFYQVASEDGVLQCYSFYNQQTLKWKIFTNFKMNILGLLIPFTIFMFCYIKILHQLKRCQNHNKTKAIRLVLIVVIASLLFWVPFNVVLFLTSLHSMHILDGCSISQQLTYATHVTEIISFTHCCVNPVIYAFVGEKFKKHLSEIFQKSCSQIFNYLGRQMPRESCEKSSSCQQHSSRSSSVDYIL

B1: 4A19 (antibody, V domains shown)
VH: QVQLVQSGAEVKKPGASVKVSCKASGYTFTDSEMHWVRQATGQGLEWMGAIQPETGGTAYNQKFKARVTMTRDTSISTAYMELSSLRSEDTAVYYCARRRRNFDYWGQGTLVTVSS
VL: DIVMTQTPLSLSVTPGQPASISCRSSQSLFHSSGNTYLHWYLQKPGQPPQLLIYKVSNRFSGVPDRFSGSGSGTDFTLKISRVEAEDVGVYYCSQSTHVPFTFGQGTKLEIKR
For B1, the EC50 in experiment [1] came out at 0.21 nM. Also, in experiment [2], the “IC50, hCCL1-induced Ca2+ flux (% stimulation), Chem-1 hCCR8 cells” value was 12.9 nM. Further, the “IC50, hCCL1-induced beta-arrestin recruitment (% stimulation), CHO-K1 hCCR8 cells” value in [3] is 1.68 nM.

B2: Hu200C9B9-7 NG-NA (antibody, V domains shown)
VH: EVQLVESGGGLVQPGGSLRLSCAASGFSFNTYVMNWVRQAPGKGLEWVARIRTKSNNYATFYVDSVKDRFTISRDDSKNSLYLQMNSLKTEDTAVYYCVSGTITRLGAGLDYWGQGTLVTVSS
VL: DIVMTQSPLSLPVTPGEPASISCRSSKSLLHSNANTYLYWYLQKPGQSPQLLIYRMSNLASGVPDRFSGSGSGTAFTLKISRVEAEDVGVYYCMQHLEYPFTFGGGTKLEIK
notes: humanized, PTM site removed
As to B2, the “IC50 (read off the curve), hCCL1-induced beta-arrestin recruitment (RLU), CHO-K1 hCCR8 cells” value in experiment [4] was roughly 2 nM. Also, in experiment [5], the “IC50, hCCL1-induced Ca2+ flux (stimulation %), Chem-1 hCCR8 cells” value was determined as 0.36 nM. Further, the EC50 in experiment [1] came out at 0.15 nM; in experiment [6], 0.069 nM. Moreover, the “IC50, hCCL1-induced Ca2+ flux (% stimulation), Chem-1 hCCR8 cells” value in experiment [2] was 4.33 nM. In addition, the “IC50, hCCL1-induced beta-arrestin recruitment (% stimulation), CHO-K1 hCCR8 cells” value in [3] was 1.58 nM.

B3: 163H9D5 (antibody, V domains shown)
VH: EVQLVESGGGLVQPKGSLKLSCAASGFSFNTYAMNWVRQAPGKGLKWVARIRTKSNNYATHYADSVKDRFTLSRDDSESMLYLQMNNLKTEDTAMYYCVGGGYGSSASNAMAYWGQGTSVTVSS
VL: DIVMTQAAPSVPVTPGESVSISCRSSKSLLHSNGNTYLYWFLQRPGQSPQLLIFRMSNLASGVPDRFSGSGSGTAFTLRISRVEAEDVGVYYCMQHLEYPFTFGSGTKLEIK
notes: tested as chimeric mAb
B3: in experiment [7], the binding result is “no binding (tested: 100 nM (highest concentration tested))”. In experiment [8], the “IC50, hCCL1-induced beta-arrestin recruitment (RLU), CHO-K1 hCCR8 cells” value came out at 13.8 nM. Besides, the EC50 in [9] stood at 29.9 nM; in experiment [10], 0.107 nM. Also, the “IC50, hCCL1-induced Ca2+ flux (stimulation %), Chem-1 hCCR8 cells [lower graph]” value in experiment [11] was 5.77 nM. Further, the “IC50, hCCL1-induced Ca2+ flux (stimulation %), Chem-1 hCCR8 cells [upper graph]” value in experiment [11] was found to be 7.6 nM.

B4: 195H8D10 (antibody, V domains shown)
VH: EVQLVGSGGGLVQPKGSLKLSCAASGFNFNTYVMNWVRQAPGKGLEWVARIRTKSNNYATYYADSVKDRFTISRDDSESKLYLQMNNLKTEDTAMYYCVSGTITRLGGGLDYWGQGTSVTVSS
VL: DIVMTQAAPSVPVTPGESVSISCRSSKRLLHSNGNTYLYWFLQRPGQSPQLLIYRMSNLASGVPDRFSGSGSGTAFTLRISRVEAEDVGVYYCMQHLEYPFTFGGGTKLEIK
notes: tested as chimeric mAb; also called 195H8D10-C
For the molecule B4, the EC50 in experiment [12] amounted to 0.211 nM; in experiment [13] it was 0.378 nM; in experiment [10], 0.0746 nM; in experiment [6], 0.041 nM; in experiment [16], 0.37 nM. Further, the binding result in [7] is “no binding (tested: 100 nM (highest concentration tested))”. The “IC50, hCCL1-induced migration of BaF3 hCCR8 cells (RLU) [cont'd) C]” value in experiment [14] is 0.478 nM. The “IC50, hCCL1-induced beta-arrestin recruitment (RLU), CHO-K1 hCCR8 cells” value in experiment [8] amounted to 3.48 nM; in experiment [15], 0.55 nM. For the same molecule, the “IC50, hCCL1-induced Ca2+ flux (stimulation %), Chem-1 hCCR8 cells” value in [5] stood at 0.33 nM. In addition, the “IC50, hCCL1-induced Ca2+ flux (stimulation %), Chem-1 hCCR8 cells [lower graph]” value in experiment [11] was 1.62 nM.

B5: 200C9B9-C1 (antibody, V domains shown)
VH: EVQLVESGGGLVQPKGSLKLSCAASGFSFNTYVMNWVRQAPGKGLNWVARIRTKSNNYATFYVDSVKDRFTISRDDSENMLYLQMNNLKIEDTAIYYCVSGTITRLGAGLDYWGQGTSVTVSS
VL: DIVMTQAAPSVPVTPGESVSISCRSSKSLLHSQGNTYLYWFLQRPGQSPQLLIYRMSNLASGVPDRFSGSGSGTAFTLRISRVEAEDVGVYYCMQHLEYPFTFGGGTKLEIK
notes: also called 200C9B9 VH with 200C9B9 VL NG-QG
For the molecule B5, the EC50 in experiment [12] was 0.399 nM; in experiment [17] it was greater than 100 nM. Besides, the “IC50, hCCL1-induced beta-arrestin recruitment (RLU), CHO-K1 hCCR8 cells” value in [15] stood at 0.154 nM.

B6: 195H8D10-C1 (antibody, V domains shown)
VH: EVQLVGSGGGLVQPKGSLKLSCAASGFNFNTYVMNWVRQAPGKGLEWVARIRTKSNNYATYYADSVKDRFTISRDDSESKLYLQMNNLKTEDTAMYYCVSGTITRLGGGLDYWGQGTSVTVSS
VL: DIVMTQAAPSVPVTPGESVSISCRSSKRLLHSQGNTYLYWFLQRPGQSPQLLIYRMSNLASGVPDRFSGSGSGTAFTLRISRVEAEDVGVYYCMQHLEYPFTFGGGTKLEIK
notes: also called 195H8D10 VH with 195H8D10 VL NG-QG
B6: the EC50 was 0.29 nM in experiment [12] and 68.1 nM in [18].

B7: 200C9B9 (antibody, V domains shown)
VH: EVQLVESGGGLVQPKGSLKLSCAASGFSFNTYVMNWVRQAPGKGLNWVARIRTKSNNYATFYVDSVKDRFTISRDDSENMLYLQMNNLKIEDTAIYYCVSGTITRLGAGLDYWGQGTSVTVSS
VL: DIVMTQAAPSVPVTPGESVSISCRSSKSLLHSNGNTYLYWFLQRPGQSPQLLIYRMSNLASGVPDRFSGSGSGTAFTLRISRVEAEDVGVYYCMQHLEYPFTFGGGTKLEIK
notes: tested as chimeric mAb; also called 200C9B9-C
Consider B7, for which the EC50 turned out to be 0.132 nM in experiment [12]; 1.53 nM in experiment [13]; 0.0741 nM in [10]; 0.05 nM in [6]; 3.16 nM in [16]. Besides, the “IC50, hCCL1-induced beta-arrestin recruitment (RLU), CHO-K1 hCCR8 cells” value worked out at 3.02 nM in experiment [4], 0.771 nM in experiment [8] and 0.143 nM in experiment [15]. Also, in experiment [7], the binding result was “no binding (tested: 100 nM (highest concentration tested))”. In experiment [14], the “IC50, hCCL1-induced migration of BaF3 hCCR8 cells (RLU) [cont'd) C]” value was found to be 0.798 nM. The “IC50, hCCL1-induced Ca2+ flux (stimulation %), Chem-1 hCCR8 cells” value in [5] amounted to 0.55 nM. The “IC50, hCCL1-induced Ca2+ flux (stimulation %), Chem-1 hCCR8 cells [lower graph]” value in experiment [11] stood at 1.89 nM.

Usually EC50 stands for the concentration giving half of the maximal effect. Low readings indicate an effect from little substance, high ones a need for much substance.
